Results on one molecule are retold here after paper PMC3926959.

The assay addresses T1, Ndc1-mTurquoise2 (S. cerevisiae), P32500.
T1 chain: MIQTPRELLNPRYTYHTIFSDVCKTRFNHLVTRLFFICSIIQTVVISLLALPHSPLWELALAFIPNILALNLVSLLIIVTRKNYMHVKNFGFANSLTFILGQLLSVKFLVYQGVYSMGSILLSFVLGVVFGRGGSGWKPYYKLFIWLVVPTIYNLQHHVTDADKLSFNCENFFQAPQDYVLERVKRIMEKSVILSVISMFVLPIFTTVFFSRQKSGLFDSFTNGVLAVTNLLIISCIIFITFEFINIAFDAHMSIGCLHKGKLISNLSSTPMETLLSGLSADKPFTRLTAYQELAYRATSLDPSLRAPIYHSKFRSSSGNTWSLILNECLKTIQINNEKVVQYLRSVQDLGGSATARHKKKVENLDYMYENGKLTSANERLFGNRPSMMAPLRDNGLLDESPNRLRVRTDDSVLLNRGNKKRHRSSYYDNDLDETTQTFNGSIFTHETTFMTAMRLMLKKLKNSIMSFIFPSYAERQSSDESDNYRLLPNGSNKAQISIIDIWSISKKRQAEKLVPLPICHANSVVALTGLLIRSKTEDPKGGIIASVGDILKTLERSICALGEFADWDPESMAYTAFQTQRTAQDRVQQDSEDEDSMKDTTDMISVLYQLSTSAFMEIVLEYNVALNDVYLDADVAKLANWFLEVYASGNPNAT
In words: line-scanning fluorescence cross-correlation spectroscopy. The settings on record: remark: other sources report otherwise.

B1: Mps3-YFP, P47069 1-682 (natural protein)
chain: MNNSNEHRREEAGAANEQMPYNKAVKSAYADVLKDKMNREQEISLRAIKKGIYTDGGETDNYDMDKENDSAYEMFKKNLDFPLDQHNDDDDDDPYIEDNGQETDGYSDEDYTDEADKSFIEDSDSDSYDLESNSDFEENLESSGEAKKLKWRTYIFYGGLFFVFYFFGSFLMTTVKNNDLESHSSGATSSPGKSFSNLQKQVNHLYSELSKRDEKHSSELDKTVKIIVSQFEKNIKRLLPSNLVNFENDINSLTKQVETISTSMSELQRRNHKFTVENVTQWQDQLVKQLDTHLPQEIPVVINNSSSLLIIPELHNYLSALISDVIESPGIGTAGSAESRWEYDLNRYVKEILSNELQYIDKDYFIQEMNRRLQSNKQEIWEEITNRLETQQQQQQQQVQQDYSNVPQQYSSILMKRLIHQIYNSNQHQWEDDLDFATYVQGTKLLNHLTSPTWRQGSGVQPIELLTDSKQSSSTYWQCENEPGCSWAIRFKTPLYLTKISYMHGRFTNNLHIMNSAPRLISLYVKLSQTKEIKALQTLANQYGFGQHHKRDRNYIKIAKFEYRLTDSRIRQQMYLPPWFIQLKPLVRSIVFQVDENYGNKKFISLRKFIINGVTPQDLQIIENNEFPVLLGDTPEYGVTQNTDEGKRKVLLSKPPYASSSTSTKFHPASNVPSFGQDELDQ
In turn, B1 yielded a percent of Ndc1-mTurquoise2 in a complex (FCCS) of 2%.
